Results on eight proteins are retold here after PMC8392543.

First the molecules themselves.
B1: EsOgl (Exiguobacterium artemiae 255-15; A109P/E176P/K441P/S130P) (protein)
chain: MERKWWHDSVVYQIYPRSFNDSNGDGIGDLVGIIEKLDYLKELGIDVIWLSPVYDSPNDDNGYDIRDYEAIMSEFGTMADFDRLLDQAHERGIKIVMDLVINHSSDEHPWFAESRKSKDNPYRDYYIWRPANEDGTLPNNWGSIFSGPAWELDEATNEYYLHLFSKKQPDLNWENPKLRQEVYQMITRWLDRGIDGFRMDVINLISKTPGLPDATVPPGALYGDGGQHYINGPRIHEFLKEMNDASFGNYDVLTVGEMPGATTDDAILYTDPERKEVNMVFTFEHMDLDSGPGGKWDVKPFDLQKLKENFTKWQVALHEKGWNSLYWNNHDQPRVVSRFGNDTTYRVESAKMLATLLHLLKGTPYIYQGEEIGMTNVAFESIEDYEDIEIRNMWKERTEQGASPAELLRAVHVKGRDNARTPIQWDATEHAGFTTGTPWLPVNPNYPTINVEQALEDPDSIFYYYKQLIALRHQHDVIVYGEYALILEEETDIYAYTRTYENETWYIYCSFSQEEVTVPLSHDTSDPVIGNYSESPAGSKEELVLRPYEAIVYRTTR
B2: EsOgl (Exiguobacterium artemiae 255-15; A109P/E176P/S130P) (protein)
chain: MERKWWHDSVVYQIYPRSFNDSNGDGIGDLVGIIEKLDYLKELGIDVIWLSPVYDSPNDDNGYDIRDYEAIMSEFGTMADFDRLLDQAHERGIKIVMDLVINHSSDEHPWFAESRKSKDNPYRDYYIWRPANEDGTLPNNWGSIFSGPAWELDEATNEYYLHLFSKKQPDLNWENPKLRQEVYQMITRWLDRGIDGFRMDVINLISKTPGLPDATVPPGALYGDGGQHYINGPRIHEFLKEMNDASFGNYDVLTVGEMPGATTDDAILYTDPERKEVNMVFTFEHMDLDSGPGGKWDVKPFDLQKLKENFTKWQVALHEKGWNSLYWNNHDQPRVVSRFGNDTTYRVESAKMLATLLHLLKGTPYIYQGEEIGMTNVAFESIEDYEDIEIRNMWKERTEQGASPAELLRAVHVKGRDNARTPIQWDATEHAGFTTGTPWLKVNPNYPTINVEQALEDPDSIFYYYKQLIALRHQHDVIVYGEYALILEEETDIYAYTRTYENETWYIYCSFSQEEVTVPLSHDTSDPVIGNYSESPAGSKEELVLRPYEAIVYRTTR
B3: EsOgl (Exiguobacterium artemiae 255-15; S130P) (protein)
chain: MERKWWHDSVVYQIYPRSFNDSNGDGIGDLVGIIEKLDYLKELGIDVIWLSPVYDSPNDDNGYDIRDYEAIMSEFGTMADFDRLLDQAHERGIKIVMDLVINHSSDEHAWFAESRKSKDNPYRDYYIWRPANEDGTLPNNWGSIFSGPAWELDEATNEYYLHLFSKKQPDLNWENEKLRQEVYQMITRWLDRGIDGFRMDVINLISKTPGLPDATVPPGALYGDGGQHYINGPRIHEFLKEMNDASFGNYDVLTVGEMPGATTDDAILYTDPERKEVNMVFTFEHMDLDSGPGGKWDVKPFDLQKLKENFTKWQVALHEKGWNSLYWNNHDQPRVVSRFGNDTTYRVESAKMLATLLHLLKGTPYIYQGEEIGMTNVAFESIEDYEDIEIRNMWKERTEQGASPAELLRAVHVKGRDNARTPIQWDATEHAGFTTGTPWLKVNPNYPTINVEQALEDPDSIFYYYKQLIALRHQHDVIVYGEYALILEEETDIYAYTRTYENETWYIYCSFSQEEVTVPLSHDTSDPVIGNYSESPAGSKEELVLRPYEAIVYRTTR
B4: EsOgl (Exiguobacterium artemiae 255-15; A109P) (protein)
chain: MERKWWHDSVVYQIYPRSFNDSNGDGIGDLVGIIEKLDYLKELGIDVIWLSPVYDSPNDDNGYDIRDYEAIMSEFGTMADFDRLLDQAHERGIKIVMDLVINHSSDEHPWFAESRKSKDNPYRDYYIWRSANEDGTLPNNWGSIFSGPAWELDEATNEYYLHLFSKKQPDLNWENEKLRQEVYQMITRWLDRGIDGFRMDVINLISKTPGLPDATVPPGALYGDGGQHYINGPRIHEFLKEMNDASFGNYDVLTVGEMPGATTDDAILYTDPERKEVNMVFTFEHMDLDSGPGGKWDVKPFDLQKLKENFTKWQVALHEKGWNSLYWNNHDQPRVVSRFGNDTTYRVESAKMLATLLHLLKGTPYIYQGEEIGMTNVAFESIEDYEDIEIRNMWKERTEQGASPAELLRAVHVKGRDNARTPIQWDATEHAGFTTGTPWLKVNPNYPTINVEQALEDPDSIFYYYKQLIALRHQHDVIVYGEYALILEEETDIYAYTRTYENETWYIYCSFSQEEVTVPLSHDTSDPVIGNYSESPAGSKEELVLRPYEAIVYRTTR
B5: EsOgl (Exiguobacterium artemiae 255-15; K441P) (protein)
chain: MERKWWHDSVVYQIYPRSFNDSNGDGIGDLVGIIEKLDYLKELGIDVIWLSPVYDSPNDDNGYDIRDYEAIMSEFGTMADFDRLLDQAHERGIKIVMDLVINHSSDEHAWFAESRKSKDNPYRDYYIWRSANEDGTLPNNWGSIFSGPAWELDEATNEYYLHLFSKKQPDLNWENEKLRQEVYQMITRWLDRGIDGFRMDVINLISKTPGLPDATVPPGALYGDGGQHYINGPRIHEFLKEMNDASFGNYDVLTVGEMPGATTDDAILYTDPERKEVNMVFTFEHMDLDSGPGGKWDVKPFDLQKLKENFTKWQVALHEKGWNSLYWNNHDQPRVVSRFGNDTTYRVESAKMLATLLHLLKGTPYIYQGEEIGMTNVAFESIEDYEDIEIRNMWKERTEQGASPAELLRAVHVKGRDNARTPIQWDATEHAGFTTGTPWLPVNPNYPTINVEQALEDPDSIFYYYKQLIALRHQHDVIVYGEYALILEEETDIYAYTRTYENETWYIYCSFSQEEVTVPLSHDTSDPVIGNYSESPAGSKEELVLRPYEAIVYRTTR
B6: EsOgl (Exiguobacterium artemiae 255-15; E176P) (protein)
chain: MERKWWHDSVVYQIYPRSFNDSNGDGIGDLVGIIEKLDYLKELGIDVIWLSPVYDSPNDDNGYDIRDYEAIMSEFGTMADFDRLLDQAHERGIKIVMDLVINHSSDEHAWFAESRKSKDNPYRDYYIWRSANEDGTLPNNWGSIFSGPAWELDEATNEYYLHLFSKKQPDLNWENPKLRQEVYQMITRWLDRGIDGFRMDVINLISKTPGLPDATVPPGALYGDGGQHYINGPRIHEFLKEMNDASFGNYDVLTVGEMPGATTDDAILYTDPERKEVNMVFTFEHMDLDSGPGGKWDVKPFDLQKLKENFTKWQVALHEKGWNSLYWNNHDQPRVVSRFGNDTTYRVESAKMLATLLHLLKGTPYIYQGEEIGMTNVAFESIEDYEDIEIRNMWKERTEQGASPAELLRAVHVKGRDNARTPIQWDATEHAGFTTGTPWLKVNPNYPTINVEQALEDPDSIFYYYKQLIALRHQHDVIVYGEYALILEEETDIYAYTRTYENETWYIYCSFSQEEVTVPLSHDTSDPVIGNYSESPAGSKEELVLRPYEAIVYRTTR
B7: EsOgl (Exiguobacterium artemiae 255-15; A109P/S130P) (protein)
chain: MERKWWHDSVVYQIYPRSFNDSNGDGIGDLVGIIEKLDYLKELGIDVIWLSPVYDSPNDDNGYDIRDYEAIMSEFGTMADFDRLLDQAHERGIKIVMDLVINHSSDEHPWFAESRKSKDNPYRDYYIWRPANEDGTLPNNWGSIFSGPAWELDEATNEYYLHLFSKKQPDLNWENEKLRQEVYQMITRWLDRGIDGFRMDVINLISKTPGLPDATVPPGALYGDGGQHYINGPRIHEFLKEMNDASFGNYDVLTVGEMPGATTDDAILYTDPERKEVNMVFTFEHMDLDSGPGGKWDVKPFDLQKLKENFTKWQVALHEKGWNSLYWNNHDQPRVVSRFGNDTTYRVESAKMLATLLHLLKGTPYIYQGEEIGMTNVAFESIEDYEDIEIRNMWKERTEQGASPAELLRAVHVKGRDNARTPIQWDATEHAGFTTGTPWLKVNPNYPTINVEQALEDPDSIFYYYKQLIALRHQHDVIVYGEYALILEEETDIYAYTRTYENETWYIYCSFSQEEVTVPLSHDTSDPVIGNYSESPAGSKEELVLRPYEAIVYRTTR
B8: EsOgl (Exiguobacterium artemiae 255-15) (protein)
chain: MERKWWHDSVVYQIYPRSFNDSNGDGIGDLVGIIEKLDYLKELGIDVIWLSPVYDSPNDDNGYDIRDYEAIMSEFGTMADFDRLLDQAHERGIKIVMDLVINHSSDEHAWFAESRKSKDNPYRDYYIWRSANEDGTLPNNWGSIFSGPAWELDEATNEYYLHLFSKKQPDLNWENEKLRQEVYQMITRWLDRGIDGFRMDVINLISKTPGLPDATVPPGALYGDGGQHYINGPRIHEFLKEMNDASFGNYDVLTVGEMPGATTDDAILYTDPERKEVNMVFTFEHMDLDSGPGGKWDVKPFDLQKLKENFTKWQVALHEKGWNSLYWNNHDQPRVVSRFGNDTTYRVESAKMLATLLHLLKGTPYIYQGEEIGMTNVAFESIEDYEDIEIRNMWKERTEQGASPAELLRAVHVKGRDNARTPIQWDATEHAGFTTGTPWLKVNPNYPTINVEQALEDPDSIFYYYKQLIALRHQHDVIVYGEYALILEEETDIYAYTRTYENETWYIYCSFSQEEVTVPLSHDTSDPVIGNYSESPAGSKEELVLRPYEAIVYRTTR

Substrate in the data set: O=[N+]([O-])c1ccc(O[C@H]2O[C@H](CO)[C@@H](O)[C@H](O)[C@H]2O)cc1
Kind of data set: purified protein. The conditions noted are these: 33 mM potassium phosphate pH 7.0, 25 °C.
For B1, the Km is 850 ± 20 µM and the catalytic efficiency (kcat/Km) was found to be 167000 M⁻¹ s⁻¹.
Take B2: the Km turned out to be 920 ± 70 µM and the kcat/Km is 217000 M⁻¹ s⁻¹.
For B3, the Michaelis constant (Km) was 1660 ± 60 µM and the specificity constant (kcat/Km) was found to be 250000 M⁻¹ s⁻¹.
In the same order, the values of B4 are 1430 ± 90 µM and 167000 M⁻¹ s⁻¹.
In the same order, the values of B5 are 930 ± 80 µM and 183000 M⁻¹ s⁻¹.
Turning to B6, the Km amounted to 1970 ± 80 µM and the kcat/Km turned out to be 167000 M⁻¹ s⁻¹.
In the case of B7, the Michaelis-Menten constant (Km) came to 1370 ± 40 µM and the specificity constant (kcat/Km) was found to be 167000 M⁻¹ s⁻¹.
On the same counts, the results for B8 are 1060 ± 20 µM and 233000 M⁻¹ s⁻¹.
